Data published in patent publication US20230220589A1.
Each block holds one binder with its values, some of them ahead of it.

Columns and labels:
[1] = biological target: M44-modified M NTAA target peptides; assay: encoding assay; P2 L
[2] = biological target: M44-modified L NTAA target peptides (M44-L-P2-peptide); assay: encoding assay; P2 L;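 further: fraction of recording tags encoded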
[3] = biological target: M44-modified P NTAA target peptides; assay: encoding assay; P2 L;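 further: fraction of recording tags encoded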
[4] = biological target: M44-modified G NTAA target peptides (M44-G-P2-peptide); assay: encoding assay; P2 L;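 further: fraction of recording tags encoded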
[5] = biological target: M44-modified A NTAA target peptides (M44-A-P2-peptide); assay: encoding assay; P2 L
[6] = biological target: M44-modified D NTAA target peptides; assay: encoding assay; P2 L;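 further: fraction of recording tags encoded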
[7] = biological target: M44-modified W NTAA target peptides; assay: encoding assay; P2 L;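 further: fraction of recording tags encoded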
[8] = biological target: M44-modified I NTAA target peptides (M44-I-P2-peptide); assay: encoding assay; P2 L
[9] = biological target: M44-modified S NTAA target peptides; assay: encoding assay; P2 L
[10] = biological target: M44-modified E NTAA target peptides; assay: encoding assay; P2 L;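 further: fraction of recording tags encoded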
[11] = biological target: M44-modified Q NTAA target peptides; assay: encoding assay; P2 L
[12] = biological target: M44-modified Y NTAA target peptides (M44-Y-P2-peptide); assay: encoding assay; P2 L;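 further: fraction of recording tags encoded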
[13] = biological target: M44-modified V NTAA target peptides; assay: encoding assay; P2 L;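 further: fraction of recording tags encoded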
[14] = biological target: M44-modified F NTAA target peptides (M44-F-P2-peptide); assay: encoding assay; P2 L;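 further: fraction of recording tags encoded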
[15] = biological target: M44-modified T NTAA target peptides; assay: encoding assay; P2 L
[16] = biological target: M44-modified N NTAA target peptides; assay: encoding assay; P2 L
[17] = biological target: M44-modified H NTAA target peptides; assay: encoding assay; P2 L
[18] = biological target: M44-modified M NTAA target peptides; assay: encoding assay; P2 G
[19] = biological target: M44-modified L NTAA target peptides (M44-L-P2-peptide); assay: encoding assay; P2 G;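 further: fraction of recording tags encoded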
[20] = biological target: M44-modified W NTAA target peptides; assay: encoding assay; P2 G;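 further: fraction of recording tags encoded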
[21] = biological target: M44-modified I NTAA target peptides (M44-I-P2-peptide); assay: encoding assay; P2 G
[22] = biological target: M44-modified Q NTAA target peptides; assay: encoding assay; P2 G
[23] = biological target: M44-modified Y NTAA target peptides (M44-Y-P2-peptide); assay: encoding assay; P2 G;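 further: fraction of recording tags encoded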
[24] = biological target: M44-modified V NTAA target peptides; assay: encoding assay; P2 G;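 further: fraction of recording tags encoded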
[25] = biological target: M44-modified F NTAA target peptides (M44-F-P2-peptide); assay: encoding assay; P2 G;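 further: fraction of recording tags encoded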
[26] = biological target: M44-modified M NTAA target peptides; assay: encoding assay; P2 E
[27] = biological target: M44-modified L NTAA target peptides (M44-L-P2-peptide); assay: encoding assay; P2 E;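 further: fraction of recording tags encoded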
[28] = biological target: M44-modified P NTAA target peptides; assay: encoding assay; P2 E;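 further: fraction of recording tags encoded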
[29] = biological target: M44-modified A NTAA target peptides (M44-A-P2-peptide); assay: encoding assay; P2 E
[30] = biological target: M44-modified D NTAA target peptides; assay: encoding assay; P2 E;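 further: fraction of recording tags encoded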
[31] = biological target: M44-modified W NTAA target peptides; assay: encoding assay; P2 E;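 further: fraction of recording tags encoded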
[32] = biological target: M44-modified I NTAA target peptides (M44-I-P2-peptide); assay: encoding assay; P2 E
[33] = biological target: M44-modified S NTAA target peptides; assay: encoding assay; P2 E
[34] = biological target: M44-modified E NTAA target peptides; assay: encoding assay; P2 E;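 further: fraction of recording tags encoded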
[35] = biological target: M44-modified Q NTAA target peptides; assay: encoding assay; P2 E
[36] = biological target: M44-modified Y NTAA target peptides (M44-Y-P2-peptide); assay: encoding assay; P2 E;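 further: fraction of recording tags encoded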
[37] = biological target: M44-modified V NTAA target peptides; assay: encoding assay; P2 E;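 further: fraction of recording tags encoded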
[38] = biological target: M44-modified F NTAA target peptides (M44-F-P2-peptide); assay: encoding assay; P2 E;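 further: fraction of recording tags encoded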
[39] = biological target: M44-modified T NTAA target peptides; assay: encoding assay; P2 E
[40] = biological target: M44-modified N NTAA target peptides; assay: encoding assay; P2 E
[41] = biological target: M44-modified H NTAA target peptides; assay: encoding assay; P2 E
[42] = biological target: M44-modified M NTAA target peptides; assay: encoding assay; P2 D
[43] = biological target: M44-modified L NTAA target peptides (M44-L-P2-peptide); assay: encoding assay; P2 D;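 further: fraction of recording tags encoded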
[44] = biological target: M44-modified G NTAA target peptides (M44-G-P2-peptide); assay: encoding assay; P2 D;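 further: fraction of recording tags encoded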
[45] = biological target: M44-modified A NTAA target peptides (M44-A-P2-peptide); assay: encoding assay; P2 D
[46] = biological target: M44-modified W NTAA target peptides; assay: encoding assay; P2 D;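 further: fraction of recording tags encoded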
[47] = biological target: M44-modified I NTAA target peptides (M44-I-P2-peptide); assay: encoding assay; P2 D
[48] = biological target: M44-modified Q NTAA target peptides; assay: encoding assay; P2 D
[49] = biological target: M44-modified Y NTAA target peptides (M44-Y-P2-peptide); assay: encoding assay; P2 D;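 further: fraction of recording tags encoded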
[50] = biological target: M44-modified F NTAA target peptides (M44-F-P2-peptide); assay: encoding assay; P2 D;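 further: fraction of recording tags encoded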
[51] = biological target: M44-modified N NTAA target peptides; assay: encoding assay; P2 D

encoding yield [1]: 0.08 | encoding yield [2]: 0.46 | encoding yield [3]: 0.02 | encoding yield [4]: 0.02 | encoding yield [5]: 0.03 | encoding yield [6]: 0.03 | encoding yield [7]: 0.05 | encoding yield [8]: 0.06 | encoding yield [9]: 0.05 | encoding yield [10]: 0.03 | encoding yield [11]: 0.04 | encoding yield [12]: 0.09 | encoding yield [13]: 0.04 | encoding yield [14]: 0.06 | encoding yield [15]: 0.02 | encoding yield [16]: 0.17 | encoding yield [17]: 0.03 | encoding yield [18]: 0.02 | encoding yield [19]: 0.09 | encoding yield [20]: 0.04 | encoding yield [21]: 0.09 | encoding yield [22]: 0.01 | encoding yield [23]: 0.03 | encoding yield [24]: 0.02 | encoding yield [25]: 0.09 | encoding yield [26]: 0.01 | encoding yield [27]: 0.03 | encoding yield [28]: 0.03 | encoding yield [29]: 0.03 | encoding yield [30]: 0.02 | encoding yield [31]: 0.03 | encoding yield [32]: 0.01 | encoding yield [33]: 0.03 | encoding yield [34]: 0.02 | encoding yield [35]: 0.02 | encoding yield [36]: 0.05 | encoding yield [37]: 0.02 | encoding yield [38]: 0.01 | encoding yield [39]: 0.02 | encoding yield [40]: 0.01 | encoding yield [41]: 0.02 | encoding yield [42]: 0.02 | encoding yield [43]: 0.04 | encoding yield [44]: 0.02 | encoding yield [45]: 0.03 | encoding yield [46]: 0.02 | encoding yield [47]: 0.01 | encoding yield [48]: 0.02 | encoding yield [49]: 0.03 | encoding yield [50]: 0.03 | encoding yield [51]: 0.02
B1: engineered M44-L binder (SEQ ID NO: 31) (designed binder, not shown: small tags and cut ends; large carriers)
chain: QDSTQNLIPAPPLISVPLQPGFWTERFQGRWFLVGFAGNAVQKERQSRLTMQSLILELQEDNSYNITAINVRGQGCRYIISTLVPSSRPGQFTLGNIHSYPQIQSLDVQVADTDYDQFAMVFLQGTSENKQYFEVALAGRTKGLSDELKERFVSFAKSLGLKDNNIVFSVPTDQCIDN

encoding yield [1]: 0.04 | encoding yield [2]: 0.18 | encoding yield [3]: 0.02 | encoding yield [4]: 0.16 | encoding yield [5]: 0.37 | encoding yield [6]: 0.02 | encoding yield [7]: 0.02 | encoding yield [8]: 0.03 | encoding yield [9]: 0.27 | encoding yield [10]: 0.03 | encoding yield [11]: 0.04 | encoding yield [12]: 0.07 | encoding yield [13]: 0.15 | encoding yield [14]: 0.02 | encoding yield [15]: 0.11 | encoding yield [16]: 0.05 | encoding yield [17]: 0.03 | encoding yield [18]: 0.01 | encoding yield [19]: 0.03 | encoding yield [20]: 0.01 | encoding yield [21]: 0.08 | encoding yield [22]: 0.02 | encoding yield [23]: 0.02 | encoding yield [24]: 0.05 | encoding yield [25]: 0.04 | encoding yield [26]: 0.01 | encoding yield [27]: 0.04 | encoding yield [28]: 0.05 | encoding yield [29]: 0.05 | encoding yield [30]: 0.03 | encoding yield [31]: 0.04 | encoding yield [32]: 0.02 | encoding yield [33]: 0.02 | encoding yield [34]: 0.02 | encoding yield [35]: 0.03 | encoding yield [36]: 0.06 | encoding yield [37]: 0.06 | encoding yield [38]: 0.02 | encoding yield [39]: 0.03 | encoding yield [40]: 0.02 | encoding yield [41]: 0.03 | encoding yield [42]: 0.04 | encoding yield [43]: 0.04 | encoding yield [44]: 0.03 | encoding yield [45]: 0.03 | encoding yield [46]: 0.03 | encoding yield [47]: 0.02 | encoding yield [48]: 0.02 | encoding yield [49]: 0.03 | encoding yield [50]: 0.06 | encoding yield [51]: 0.02
B2: engineered M44-A binder (SEQ ID NO: 42) (designed binder, not shown: small tags and cut ends; large carriers)
chain: QVSVQPNFQQDKFLGRWFVAGLASNSSWDREKVAALSGAKMVVAPATDGGLNVTRTMLRKNQCETYTGLLQPAGSLGSYSWRSPHPGSTGSESVVETDYDQYALVYGQGSKGPGEDLRAAALWSRTQTPRAELKEKFTAFSKAQGFTEDTIVFLPQTDKCMTEQ

encoding yield [1]: 0.03 | encoding yield [2]: 0.22 | encoding yield [3]: 0.01 | encoding yield [4]: 0.01 | encoding yield [5]: 0.01 | encoding yield [6]: 0.01 | encoding yield [7]: 0.02 | encoding yield [8]: 0.03 | encoding yield [9]: 0.02 | encoding yield [10]: 0.01 | encoding yield [11]: 0.02 | encoding yield [12]: 0.03 | encoding yield [13]: 0.02 | encoding yield [14]: 0.01 | encoding yield [15]: 0.01 | encoding yield [16]: 0.02 | encoding yield [17]: 0.01 | encoding yield [18]: 0.01 | encoding yield [19]: 0.07 | encoding yield [20]: 0.01 | encoding yield [21]: 0.17 | encoding yield [22]: 0.01 | encoding yield [23]: 0.01 | encoding yield [24]: 0.02 | encoding yield [25]: 0.03 | encoding yield [26]: 0 | encoding yield [27]: 0.01 | encoding yield [28]: 0.01 | encoding yield [29]: 0.01 | encoding yield [30]: 0.01 | encoding yield [31]: 0.01 | encoding yield [32]: 0 | encoding yield [33]: 0.01 | encoding yield [34]: 0.01 | encoding yield [35]: 0.01 | encoding yield [36]: 0.02 | encoding yield [37]: 0.01 | encoding yield [38]: 0 | encoding yield [39]: 0.01 | encoding yield [40]: 0.01 | encoding yield [41]: 0.01 | encoding yield [42]: 0.01 | encoding yield [43]: 0.01 | encoding yield [44]: 0.01 | encoding yield [45]: 0.01 | encoding yield [46]: 0.01 | encoding yield [47]: 0 | encoding yield [48]: 0.01 | encoding yield [49]: 0.01 | encoding yield [50]: 0.01 | encoding yield [51]: 0.01
B3: engineered M44-L binder (SEQ ID NO: 21) (designed binder, not shown: small tags and cut ends; large carriers)
chain: QVSVQPNFQQDKFLGRWFYAGHASNSSWYREKVAALSMAKLVVAPATDGGLNATETFLRKNQCETITSLLQPAGSLGSYSSRSPHGGSTWSTSVVETDYDQYALLYLQGSKGPGEDFRGAILASRTQTPRAELKEKFTAFSKAQGFTEDTIVFLPQTDKCMTEQ
